Measurements as given in the supplement of paper PMC9112550, “Optimization of the antimicrobial peptide Bac7 by deep mutational scanning” (BMC Biology, 2022).

system: Escherichia coli TOP10; test: shrunken log2 fold change of peptide-encoding DNA abundance (4.5 h post-induction vs induction); higher = less antimicrobial activity (less host growth inhibition); conditions: time post-induction: 4.5 h; library: site-saturation at positions 5, 18, 19, 20
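Further: peptides expressed intracellularly from a pBAD plasmid library in pooled LB shake-flask culture, induced with 0.3% L-arabinose, DNA abundance read by NGS, three biological replicates, DESeq2 with apeglm shrinkage.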

| Sequence | shrunken log2 fold change |
| --- | --- |
| RRIRQRPPRLPRPRPRPNREPRP | -0.0709 |
| RRIRSRPPRLPRPRPRPKQKPRP | -0.000384 |
| RRIRKRPPRLPRPRPRPHWAPRP | 0.118 |
| RRIRCRPPRLPRPRPRPYWAPRP | -1.21 |
| RRIRMRPPRLPRPRPRPNYYPRP | -0.576 |
| RRIRTRPPRLPRPRPRPANPPRP | 0.0504 |
| RRIRDRPPRLPRPRPRPQCGPRP | 0.192 |
| RRIRNRPPRLPRPRPRPEPIPRP | 0.0458 |
| RRIRVRPPRLPRPRPRPATLPRP | -0.00452 |
| RRIRDRPPRLPRPRPRPFYRPRP | 0.03 |
| RRIRMRPPRLPRPRPRPLGNPRP | -0.0024 |
| RRIRLRPPRLPRPRPRPWLAPRP | -0.218 |
| RRIRERPPRLPRPRPRPRDAPRP | 0.446 |
| RRIRCRPPRLPRPRPRPESMPRP | 0.114 |
| RRIRRRPPRLPRPRPRPDLKPRP | 0.162 |
| RRIRFRPPRLPRPRPRPYLFPRP | 0.425 |
| RRIRCRPPRLPRPRPRPDGEPRP | 0.0622 |
| RRIRHRPPRLPRPRPRPYYIPRP | 0.0121 |
| RRIRGRPPRLPRPRPRPNRQPRP | 0.167 |
| RRIRLRPPRLPRPRPRPSPEPRP | 0.00229 |
| RRIRIRPPRLPRPRPRPWHTPRP | -0.113 |
| RRIRVRPPRLPRPRPRPHKDPRP | -0.36 |

| Sequence | shrunken log2 fold change |
| --- | --- |
| RRIRYRPPRLPRPRPRPQDQPRP | -0.21 |
| RRIRSRPPRLPRPRPRPGAFPRP | 0.0905 |
| RRIRSRPPRLPRPRPRPDALPRP | 0.353 |
| RRIRRRPPRLPRPRPRPGRTPRP | 0.315 |
| RRIRLRPPRLPRPRPRPTLMPRP | 0.0897 |
| RRIRHRPPRLPRPRPRPMTSPRP | -0.491 |
| RRIRIRPPRLPRPRPRPEHFPRP | -0.0163 |
| RRIRKRPPRLPRPRPRPNADPRP | 0.0182 |
| RRIRHRPPRLPRPRPRPRCNPRP | -0.331 |
| RRIRTRPPRLPRPRPRPKNHPRP | -0.712 |
| RRIRHRPPRLPRPRPRPILVPRP | -0.148 |
| RRIRDRPPRLPRPRPRPCGPPRP | 0.0478 |
| RRIRLRPPRLPRPRPRPYILPRP | -0.317 |
| RRIRKRPPRLPRPRPRPQRGPRP | -0.0338 |
| RRIRWRPPRLPRPRPRPTFPPRP | 0.197 |
| RRIRKRPPRLPRPRPRPVMKPRP | 0.535 |
| RRIRRRPPRLPRPRPRPKQFPRP | -0.00581 |
| RRIRFRPPRLPRPRPRPQDMPRP | 0.028 |
| RRIRRRPPRLPRPRPRPYCTPRP | -0.24 |
| RRIRSRPPRLPRPRPRPPQGPRP | 0.39 |
| RRIRVRPPRLPRPRPRPHNDPRP | -0.318 |
| RRIRPRPPRLPRPRPRPHLQPRP | 0.152 |

| Sequence | shrunken log2 fold change |
| --- | --- |
| RRIRQRPPRLPRPRPRPYGMPRP | -0.549 |
| RRIRTRPPRLPRPRPRPTVIPRP | -0.17 |
| RRIRKRPPRLPRPRPRPDRIPRP | -0.00844 |
| RRIRMRPPRLPRPRPRPTSNPRP | 0.00211 |
| RRIRCRPPRLPRPRPRPKSFPRP | -0.288 |
| RRIRPRPPRLPRPRPRPTFDPRP | -0.0186 |
| RRIRRRPPRLPRPRPRPLDFPRP | 0.184 |
| RRIRQRPPRLPRPRPRPLIQPRP | -0.228 |
| RRIRKRPPRLPRPRPRPHMHPRP | -0.186 |
| RRIRPRPPRLPRPRPRPTQNPRP | 0.534 |
| RRIRPRPPRLPRPRPRPTVRPRP | 0.0204 |
| RRIRIRPPRLPRPRPRPEMMPRP | 0.0516 |
| RRIRVRPPRLPRPRPRPNRPPRP | -0.262 |
| RRIRCRPPRLPRPRPRPARNPRP | -0.182 |
| RRIRWRPPRLPRPRPRPVQEPRP | 0.342 |
| RRIRCRPPRLPRPRPRPELPPRP | 0.762 |
| RRIRRRPPRLPRPRPRPPFLPRP | 0.315 |
| RRIRSRPPRLPRPRPRPIKKPRP | 0.234 |
| RRIRDRPPRLPRPRPRPPNQPRP | 0.317 |
| RRIRDRPPRLPRPRPRPWDPPRP | 0.0959 |
| RRIRHRPPRLPRPRPRPFPPPRP | -0.228 |
| RRIRCRPPRLPRPRPRPIQGPRP | -0.0195 |

| Sequence | shrunken log2 fold change |
| --- | --- |
| RRIRPRPPRLPRPRPRPQPPPRP | 0.509 |
| RRIRRRPPRLPRPRPRPGGYPRP | -0.0378 |
| RRIRARPPRLPRPRPRPIFYPRP | -0.0773 |
| RRIRCRPPRLPRPRPRPDFDPRP | -0.0217 |
| RRIRSRPPRLPRPRPRPSKEPRP | -0.0581 |
| RRIRQRPPRLPRPRPRPYQMPRP | -0.00133 |
| RRIRMRPPRLPRPRPRPQWDPRP | 0.232 |
| RRIRERPPRLPRPRPRPLVDPRP | -0.135 |
| RRIRWRPPRLPRPRPRPPMDPRP | 0.0637 |
| RRIRRRPPRLPRPRPRPVWQPRP | 0.395 |
| RRIRRRPPRLPRPRPRPHYCPRP | -0.356 |
| RRIRRRPPRLPRPRPRPTCYPRP | -0.242 |
| RRIRKRPPRLPRPRPRPRAKPRP | 0.173 |
| RRIRLRPPRLPRPRPRPWSEPRP | 0.0878 |
| RRIRFRPPRLPRPRPRPMYPPRP | -0.249 |
| RRIRLRPPRLPRPRPRPKRVPRP | -0.116 |
| RRIRTRPPRLPRPRPRPLKPPRP | -0.126 |
| RRIRERPPRLPRPRPRPVDIPRP | -0.105 |
| RRIRVRPPRLPRPRPRPIESPRP | -0.0725 |
| RRIRARPPRLPRPRPRPKRKPRP | 0.654 |
| RRIRWRPPRLPRPRPRPWTEPRP | -0.301 |
| RRIRDRPPRLPRPRPRPDNCPRP | -0.000924 |

| Sequence | shrunken log2 fold change |
| --- | --- |
| RRIRMRPPRLPRPRPRPGPMPRP | 1.05 |
| RRIRERPPRLPRPRPRPFQCPRP | -0.018 |
| RRIRRRPPRLPRPRPRPAWMPRP | 0.24 |
| RRIRTRPPRLPRPRPRPSQVPRP | -0.2 |
| RRIRLRPPRLPRPRPRPFCVPRP | -0.265 |
| RRIRARPPRLPRPRPRPYDEPRP | -0.0107 |
| RRIRLRPPRLPRPRPRPMFTPRP | -0.0806 |
| RRIRMRPPRLPRPRPRPCIHPRP | 0.00462 |
| RRIRNRPPRLPRPRPRPWAGPRP | 0.163 |
| RRIRTRPPRLPRPRPRPANLPRP | -0.0546 |
| RRIRNRPPRLPRPRPRPSSGPRP | -0.649 |
| RRIRPRPPRLPRPRPRPHLCPRP | 0.0476 |
| RRIRIRPPRLPRPRPRPHYDPRP | -0.801 |
| RRIRVRPPRLPRPRPRPGSHPRP | 0.105 |
| RRIRVRPPRLPRPRPRPSTPPRP | -0.0614 |
| RRIRKRPPRLPRPRPRPIMAPRP | 0.0791 |
| RRIRCRPPRLPRPRPRPCCGPRP | -0.0934 |
| RRIRHRPPRLPRPRPRPLTLPRP | -0.193 |
| RRIRFRPPRLPRPRPRPEWYPRP | -0.361 |
| RRIRNRPPRLPRPRPRPDRPPRP | -0.151 |
| RRIRDRPPRLPRPRPRPVGVPRP | 0.189 |
